Measured values: publication PMC2952836

How the values were obtained:
human α-thrombin (human) [1] = target: human α-thrombin (human) (UniProt P00734); assay: kinetics of thrombin inactivation
human α-thrombin (human) [2] = target: human α-thrombin (human) (UniProt P00734)

| K (TDS,HCII), dissociation constant of ternary complex formation with DS (human α-thrombin (human) [1]) | K (TH,HCII), dissociation constant of ternary complex formation with heparin (human α-thrombin (human) [1]) | second-order rate constant of uncatalyzed thrombin inactivation (no GAG) (human α-thrombin (human) [2]) | Substance |
| --- | --- | --- | --- |
| 0.022 µM |  |  | native plasma heparin cofactor II (from UniProt P05546 20-499) (natural protein) |
|  | 0.018 µM | 420 M⁻¹ s⁻¹ | deglycosylated plasma heparin cofactor II (from UniProt P05546 20-499) (natural protein) |
